In publication PMC6802118, “Isolation of Artemisia capillaris membrane-bound di-prenyltransferase for phenylpropanoids and redesign of artepillin C in yeast” (Communications Biology, 2019) one finds Km data, which are given here for one protein.

Substrate in series [1]: CC(C)=CCc1cc(/C=C/C(=O)O)ccc1O
In words: HPLC assay of artepillin C formation; non-linear least-squares fit. The note with it: N. benthamiana microsomes, 0.5 mM DMAPP, 10 mM MgCl2, 30 °C, 20 min, 15.6-250 µM drupanin, mean ± SE. Format: biochemical, Artemisia capillaris.

Substrate in series [2]: CC(C)=CCOP(=O)(O)OP(=O)(O)O
The description is as above. Format: biochemical, Artemisia capillaris. The note with it: N. benthamiana microsomes, 0.5 mM drupanin, 10 mM MgCl2, 30 °C, 20 min, 12.5-200 µM DMAPP, mean ± SE.

One may read the Km as the substrate concentration at which the rate is half of its maximum.

B1: AcPT1 (Artemisia capillaris) (protein)
chain: ISKVENNVSAQFQRRGYKNHFGQSLHEPLSLQKMDEEKFKLNAASTNNPQFDATHDLVKPTESVISFLEVLFRFIRPYAAVGTVLCIASMSLLTVEKLSDFSPLFFMKVLQALVGAMFMQMWVCGINQICDIELDKINKPSLPLASGELSMTTAITVSALSAIMSFSIGWIASPALFWGFVGWFVVGTAYSANLPWLRWKRFPLTSAFYMLCSRALVVPIGYYLHMQKSIHGGSALLSRPILFAVGMLSAFCISTIFFKDIPDIEGDRMHGIKSLAITLGEKRTFWMCIWILEIAYVAAAFFGATSPITWSKYITVISHLAMALALWTRAKSTDVKNKDAVQSMYYFLWQLFFAEYGLIALVR
notes: full CDS, 401 aa incl. predicted 38-aa plastid transit peptide; untagged (pGWB502, 35S promoter); transient expression in Nicotiana benthamiana leaves; microsomes
Regarding B1, the Km in series [1] amounted to 50 ± 5 µM; in series [2], 130 ± 20 µM.
